T1: p110^RB, the hypophosphorylated form of Rb (Homo sapiens, UniProt P06400)
T1 construct: In proliferating cells, the Rb protein existed in several states of phosphorylation; endogenous in cells; host or cells: WR2E3 cells (inferred as the source of the extract put on the beads)
T1 sequence (P06400 1-928): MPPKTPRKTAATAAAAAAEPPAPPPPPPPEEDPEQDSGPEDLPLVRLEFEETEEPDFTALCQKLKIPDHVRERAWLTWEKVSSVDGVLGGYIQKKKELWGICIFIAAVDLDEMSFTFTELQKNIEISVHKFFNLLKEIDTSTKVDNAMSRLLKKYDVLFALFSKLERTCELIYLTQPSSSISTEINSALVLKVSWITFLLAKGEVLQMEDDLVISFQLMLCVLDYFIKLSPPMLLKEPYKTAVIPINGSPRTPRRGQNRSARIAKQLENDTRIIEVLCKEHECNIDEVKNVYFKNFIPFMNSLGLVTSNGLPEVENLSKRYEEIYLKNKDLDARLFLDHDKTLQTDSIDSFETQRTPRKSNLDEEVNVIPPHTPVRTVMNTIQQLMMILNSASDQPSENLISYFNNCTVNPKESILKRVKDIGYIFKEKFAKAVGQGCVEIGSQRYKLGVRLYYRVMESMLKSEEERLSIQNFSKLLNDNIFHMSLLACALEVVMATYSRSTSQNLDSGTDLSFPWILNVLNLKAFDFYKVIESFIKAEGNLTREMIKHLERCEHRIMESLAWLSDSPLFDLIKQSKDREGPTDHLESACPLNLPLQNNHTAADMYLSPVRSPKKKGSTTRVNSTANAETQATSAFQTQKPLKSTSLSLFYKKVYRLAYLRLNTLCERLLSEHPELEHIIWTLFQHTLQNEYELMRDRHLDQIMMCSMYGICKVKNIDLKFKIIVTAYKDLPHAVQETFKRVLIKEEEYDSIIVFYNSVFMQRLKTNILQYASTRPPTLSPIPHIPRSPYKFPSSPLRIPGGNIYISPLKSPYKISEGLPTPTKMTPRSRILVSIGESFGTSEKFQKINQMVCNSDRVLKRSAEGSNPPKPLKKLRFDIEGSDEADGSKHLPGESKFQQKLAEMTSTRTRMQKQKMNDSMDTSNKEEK

B1: Purβ: Pur family protein, GST-tagged, purified from bacterial lysate (protein, UniProt Q96QR8 2-312, looked up)
Transcriptional regulator …: ADGDSGSERGGGGGPCGFQPASRGGGEQETQELASKRLDIQNKRFYLDVKQNAKGRFLKIAEVGAGGSKSRLTLSMAVAAEFRDSLGDFIEHYAQLGPSSPEQLAAGAEEGGGPRRALKSEFLVRENRKYYLDLKENQRGRFLRIRQTVNRGGGGFGAGPGPGGLQSGQTIALPAQGLIEFRDALAKLIDDYGGEDDELAGGPGGGAGGPGGGLYGELPEGTSITVDSKRFFFDVGCNKYGVFLRVSEVKPSYRNAITVPFKAWGKFGGAFCRYADEMKEIQERQRDKLYERRGGGSGGGEESEGEEVDED
modifications: GST tag
notes: Pur family protein, GST-tagged, purified from bacterial lysate
B2: Purα: sequence-specific single-stranded DNA-binding protein; GST-tagged, purified from bacteria in the EMSA (protein)
chain: MADRDSGSEQGGAALGSGGSLGHPGSGSGSGGGGGGGGGGGGSGGGGGGAPGGLQHETQELASKRVDIQNKRFYLDVKQNAKGRFLKIAEVGAGGNKSRLTLSMSVAVEFRDYLGDFIEHYAQLGPSQPPDLAQAQDEPRRALKSEFLVRENRKYYMDLKENQRGRFLRIRQTVNRGPGLGSTQGQTIALPAQGLIEFRDALAKLIDDYGVEEEPAELPEGTSLTVDNKRFFFDVGSNKYGVFMRVSEVKPTYRNSITVPYKVWAKFGHTFCKYSEEMKKIQEKQREKRAACEQLHQQQQQQQEETAAATLLLQGEEEGEED
modifications: left off: a dimerising Fc or GST
notes: GST-tagged, purified from bacteria in the EMSA
B3: Gst-Purα: GST fusion of Purα expressed in bacteria, bound to glutathione-agarose beads (protein)
chain: B2 chain
modifications: left off: a dimerising Fc or GST

How the values were obtained:
[1] = tested on: ALS ssDNA (GGGGCC hexanucleotide repeat expanded at C9ORF72); experiment: Electrophoretic mobility shift assay with ALS ssDNA; type: binding; conditions: for binding of ALS repeat (qualitative): DNA concentration courses
Protocol: Infrared oligonucleotides representing a GGGGCC hexanucleotide repeat expanded at C9ORF72 in ALS patients were custom ordered and are referred to as ALS ssDNA. 4% polyacrylamide gel electrophoresis was performed using IR-labeled oligonucleotides and imaged using the Li-Cor Odyssey IR imaging instrumentation and software.
Electrophoretic Mobility Shift Assay-Various combinations of Purα, Purβ, TZIP, and IR-labeled oligonucleotides were prepared in the 5× Johnson binding buffer (Bergemann, Andrew D and Johnson, Edward M (1992), The HeLa Pur Factor Binds Single-Stranded DNA at a Specific Element Conserved in Gene Flanking Regions and Origins of DNA Replication. Molecular and Cellular Biology, vol 12:3 (1257-1265), incorporated by reference herein in its entirety), adjusted to 5 mM DTT, 5 mM EDTA, and 0.5% Tween 20. 4% polyacrylamide gel electrophoresis was performed on samples and imaged with the Li-Cor Odyssey instrumentation and software. Densitometry was performed on the DNA concentration course experiments using the Li-Cor Odyssey software.
A Kd value obtained for Purβ was complex and not readily interpretable.

[2] = tested on: FXS ssDNA (G-rich trinucleotide DNA repeats at FMR1); experiment: Electrophoretic mobility shift assay with FXS ssDNA; type: binding
Description: A GE Microspin GST purification module was used to purify GST-tagged Purα and Purβ from bacterial lysate. Polyacrylamide gel electrophoresis with SDS-Page gels and molecular markers were used to verify that GST, Purα, and Purβ were expressed and purified. Expressed proteins were detected using antibodies against Purα and Purβ, including monoclonal mouse anti-Pur antibody developed in Johnson laboratory (clone 10B12) and polyclonal antibody against Purβ (Abcam). Polyacrylamide gel electrophoresis with TBE buffer was used for gel-mobility shift assay. Infrared-labeled oligonucleotides representing G-rich trinucleotide DNA repeats at FMR1 in patients with Fragile X Syndrome (FXS) were custom ordered and are referred to herein as FXS ssDNA. Infrared-labeled oligonucleotide substrates in agarose and polyacrylamide gels were detected through the use of the Odyssey (LICOR) instrumentation and software. […] When Purα and Purβ are combined (FIG. 17), by increasing the amount of Purβ, the DNA is shifted more to the top of the gel. Therefore, there is more binding of the proteins to the DNA. […] In FIG. 19, TZIP enhances the mobility shift of ssDNA FXS in the presence of Purα.

[3] = tested on: ras-transformed NIH3T3 cells; experiment: Anchorage independent growth of ras-transformed NIH3T3 cells; type: cell-based; conditions: pBABE and pBKPurα transfected, puromycin selected
Description: Purα also antagonizes colony formation and anchorage-independent growth related to ras-transformation of NIH3T3 cells. Ras-transformed cells were transfected with pBABE (empty vector) and either pBK (empty vector) or pBKPurα expression construct and selected for puromycin resistance. Referring to FIG. 4, panel A (pBABE) and panel B (pBABE+pBK) show anchorage independent cell growth.

[4] = tested on: ras-transformed and non-transformed NIH3T3 cells; experiment: Cell cycle progression (FACS DNA content) in cells stably transfected to over-express Purα; type: cell-based; conditions: two to five-fold elevated levels of Purα in stably transfected cell lines
Description: Cells were released from a double thymidine block, which arrests cells upon entry to S phase, into normal growth medium. Samples were subjected to fluorescence-activated cell sorting to determine cellular DNA content.
Stably transfected or co-transfected pools and transfected clones are shown on the right.
A pool of ras-transformed cells were stably transfected or co-transfected with the following: (a) pBABE, an empty vector; (b) pBABE+pBK, both empty expression vectors; (c) pBABE+pBKPurα, to over-express Purα; (d) pBABE+pBKPurα^low to express Purα at a level near that of endogenous Purα; (e) pBABE+pBKPurα^high to express Purα at a level nearly 5-fold that of endogenous Purα; (f) pEBV, an empty expression vector (g) pEBVPurα to over-express Purα. 4N indicates completion of DNA synthesis.

NIH3T3 cells = experiment: Purα injected into NIH3T3 cells at cell-cycle transition points; type: cell-based
Protocol: Purα was injected into NIH3T3 cells during various cell-cycle transition points to determine the effects of elevated Purα levels at different phases of the cell cycle. […] In FIG. 2, the clear bar represents dividing cells, the black bar represents non-dividing cells, and the shaded bar represents rapid cell death.

[5] = target: T1, p110^RB, the hypophosphorylated form of Rb; experiment: GST bead pull-down of Rb, anti-Rb blot; type: binding; conditions: protein on glutathione-agarose beads
Protocol: Rb was detected in extracts of monkey CV-1 cells complexed with Purα. These complexes can be immunoextracted from cell lysates using monoclonal antibodies to either Purα or Rb.
Proteins expressed in bacteria were bound to glutathione-agarose beads. Unfused GST was prepared in the same manner for use as a control. Beads containing equivalent amounts of each protein were used for each lane. Beads were collected, washed, and bound proteins were subjected to electrophoresis. The proteins were then blotted and probed with anti-Rb monoclonal antibody.
In contrast, binding of Rb to control GST alone was nil. IPP represents Rb immunoprecipitated from WR2E3 cells using rabbit polyclonal anti-Rb antibody. In proliferating cells, the Rb protein existed in several states of phosphorylation, the hypophosphorylated state, p110^RB, migrating more rapidly on SDS gels (lane 1).

Molecule	binding of ALS repeat (qualitative) [1]	binding / mobility shift of ssDNA FXS (qualitative) [2]	anchorage independent growth [3]	Kd ([1]; densitometry of DNA concentration course)	S phase entry and progression [4]	effect on cell cycle / cell fate (NIH3T3 cells; introduction of Purα in G1 phase)	effect on cell cycle / cell fate (NIH3T3 cells; introduction of Purα in later phases, such as G2-M phase)	binding to Rb [5]
B1	bound the ALS repeat to a much smaller degree	does not shift the ssDNA FXS as strongly as Purα						
B2	strongly bind the ALS repeat in low concentrations		repressed anchorage independent growth	16 nM	retarded entry into and progression through S phase	arrested cells at the G1-S boundary, causing programmed cell death	arrested, but did not prevent, complete replication of the genome	
B3								bind exclusively to the hypophosphorylated forms of p110^RB

From US9896489B2, “Family of synthetic polynucleotide-binding peptides and uses thereof” (Eastern Virginia Medical School, priority 2012, dated 2018)
